# Measured values reported in paper PMC9036092 (The Journal of Cell Biology, 2022).
# Where no end group is shown, it is not given here. The star is where a group is joined. FITC = O=C1OC2(c3ccc(O)cc3Oc3cc(O)ccc32)c2ccc(NC(=S)*)cc21; Ahx = NCCCCCC(=O)O
# B1: Transportin-1 (TNPO1) with the acidic loop (residues 337–367) replaced by a GGSGGSG linker (natural protein)
# chain: MEYEWKPDEQGLQQILQLLKESQSPDTTIQRTVQQKLEQLNQYPDFNNYLIFVLTKLKSEDEPTRSLSGLILKNNVKAHFQNFPNGVTDFIKSECLNNIGDSSPLIRATVGILITTIASKGELQNWPDLLPKLCSLLDSEDYNTCEGAFGALQKICEDSAEILDSDVLDRPLNIMIPKFLQFFKHSSPKIRSHAVACVNQFIISRTQALMLHIDSFIENLFALAGDEEPEVRKNVCRALVMLLEVRMDRLLPHMHNIVEYMLQRTQDQDENVALEACEFWLTLAEQPICKDVLVRHLPKLIPVLVNGMKYSDIDIILLKGDVEEDETIPDSEQDIRGGSGGSGDTISDWNLRKCSAAALDVLANVYRDELLPHILPLLKELLFHHEWVVKESGILVLGAIAEGCMQGMIPYLPELIPHLIQCLSDKKALVRSITCWTLSRYAHWVVSQPPDTYLKPLMTELLKRILDSNKRVQEAACSAFATLEEEACTELVPYLAYILDTLVFAFSKYQHKNLLILYDAIGTLADSVGHHLNKPEYIQMLMPPLIQKWNMLKDEDKDLFPLLECLSSVATALQSGFLPYCEPVYQRCVNLVQKTLAQAMLNNAQPDQYEAPDKDFMIVALDLLSGLAEGLGGNIEQLVARSNILTLMYQCMQDKMPEVRQSSFALLGDLTKACFQHVKPCIADFMPILGTNLNPEFISVCNNATWAIGEISIQMGIEMQPYIPMVLHQLVEIINRPNTPKTLLENTAITIGRLGYVCPQEVAPMLQQFIRPWCTSLRNIRDNEEKDSAFRGICTMISVNPSGVIQDFIFFCDAVASWINPKDDLRDMFCKILHGFKNQVGDENWRRFSDQFPLPLKERLAAFYGV
# B2: FITC-labeled peptide corresponding to residues 699–729 of BAP1 (peptide)
# peptide: {FITC-Ahx}-RRRQGVSIGRLHKQRKPDRRKRSRPYKAKRQ
# Experiments:
# Test in all cases: fluorescence polarisation
# [1] = target: FITC-labeled peptide corresponding to residues 699–729 of BAP1 (human)
# [2] = target: B2
# [3] = target: Importin α5 (KPNA1), residues 66–512, without the IBB domain (UniProt P52294 66-512)
# Importin α5 (KPNA1), residues 66–512, without the IBB domain, sequence (P52294 66-512): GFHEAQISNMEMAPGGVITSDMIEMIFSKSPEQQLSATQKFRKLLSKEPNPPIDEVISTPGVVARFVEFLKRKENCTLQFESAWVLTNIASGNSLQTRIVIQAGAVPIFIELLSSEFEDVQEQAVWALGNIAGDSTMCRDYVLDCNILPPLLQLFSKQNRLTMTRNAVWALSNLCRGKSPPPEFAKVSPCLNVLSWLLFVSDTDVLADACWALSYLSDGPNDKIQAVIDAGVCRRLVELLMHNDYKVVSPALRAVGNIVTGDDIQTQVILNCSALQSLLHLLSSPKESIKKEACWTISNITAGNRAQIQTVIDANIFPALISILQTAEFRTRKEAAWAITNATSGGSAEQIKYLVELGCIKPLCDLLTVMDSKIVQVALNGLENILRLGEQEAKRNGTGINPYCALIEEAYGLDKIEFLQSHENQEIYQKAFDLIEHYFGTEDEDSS
molecule,measurement,setting,value
"Importin α1 (KPNA2), residues 60–529, without the IBB domain (from UniProt P52292 60-529) (domain or fragment)",Kd,[1],> 7200 nM
B1,Kd,[2],19.6 nM
B2,Kd,[3],670 nM
